Substitutions are numbered along the chain they refer to. Names may count otherwise. Each block holds one binder with its values, some of them ahead of it.
Experiments:
[1] = target: T1, human CD3 epsilon alanine mutant, position 3 (G3A) (human, UniProt P07766 22-207); test: alanine scanning, FACS on EL4 transfectants
T1 construct: On transfected EL4 cells

[2] = target: T2, human CD3 epsilon alanine mutant, position 1 (Q1A) (human, UniProt P07766 23-207); test: alanine scanning, FACS on EL4 transfectants
T2 construct: On transfected EL4 cells; positions count on the mature chain
T2 sequence (P07766 other isoform, or with tags, fused parts or gaps, stated change not applied): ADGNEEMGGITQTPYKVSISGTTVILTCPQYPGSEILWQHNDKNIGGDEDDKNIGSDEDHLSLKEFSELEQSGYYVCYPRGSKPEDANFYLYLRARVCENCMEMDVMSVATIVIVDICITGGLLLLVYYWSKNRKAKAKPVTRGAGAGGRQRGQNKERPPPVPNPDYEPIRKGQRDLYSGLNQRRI

[3] = target: T3, human CD3 epsilon alanine mutant, position 5 (E5A) (human, UniProt P07766 22-207); test: alanine scanning, FACS on EL4 transfectants
T3 construct: On transfected EL4 cells
T3 sequence (P07766 other isoform, or with tags, fused parts or gaps limits assumed, stated change not applied): as the sequence (P07766 other isoform, or with tags, fused parts or gaps, stated change not applied) above, with A1Q, E5A counted along it

[4] = target: T4, human CD3 epsilon alanine mutant, position 2 (D2A) (human, UniProt P07766 22-207); test: alanine scanning, FACS on EL4 transfectants
T4 construct: On transfected EL4 cells
T4 sequence (P07766 other isoform, or with tags, fused parts or gaps limits assumed, stated change not applied): as the sequence (P07766 other isoform, or with tags, fused parts or gaps, stated change not applied) above, with A1Q, D2A counted along it

[5] = target: T5, 1-27 CD3-Fc (N-terminal amino acids 1-27 of the mature human CD3 epsilon chain fused to the hinge and Fc … (human)); test: ELISA, periplasmic scFv on captured 1-27 CD3-Fc
T5 construct: also called 1-27 CD3ε-Fc; human CD3 epsilon (aa 1-27)-Fc fusion protein

[6] = target: T6, squirrel monkey 1-27 CD3ε-EpCAM (Saimiri sciureus CD3 epsilon 1-27, …); test: FACS on transfected 293-HEK cells, periplasmic scFv
T6 construct: also called 1-27 CD3-EpCAM comprising the squirrel monkey 27 mer
T6 chain: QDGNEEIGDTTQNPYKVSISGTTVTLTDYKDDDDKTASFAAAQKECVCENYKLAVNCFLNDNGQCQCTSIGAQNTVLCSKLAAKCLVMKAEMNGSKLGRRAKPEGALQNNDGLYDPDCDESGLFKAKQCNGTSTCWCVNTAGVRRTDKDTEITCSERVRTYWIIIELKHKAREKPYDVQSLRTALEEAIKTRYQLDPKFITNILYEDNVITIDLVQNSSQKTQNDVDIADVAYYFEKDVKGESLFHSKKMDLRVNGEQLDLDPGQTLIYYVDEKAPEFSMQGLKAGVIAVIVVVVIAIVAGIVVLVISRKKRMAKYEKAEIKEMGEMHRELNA

tamarin 1-27 CD3ε-EpCAM = target: T7, tamarin 1-27 CD3ε-EpCAM (Saguinus oedipus CD3 epsilon 1-27, …); test: as above
T7 construct: On transiently transfected 293-HEK cells; also called 1-27 CD3-EpCAM comprising the tamarin 27 mer
T7 chain: T6 chain with I7M

human 1-27 CD3ε-EpCAM = target: T8, human 1-27 CD3ε-EpCAM (human CD3 epsilon 1-27, cynomolgus EpCAM); test: as above
T8 construct: Transmembrane fusion: CD3 epsilon 1-27, Flag tag, mature cynomolgus EpCAM; on transiently transfected 293-HEK cells; also called 1-27 CD3-EpCAM comprising the human 27 mer
T8 chain: T6 chain with I7M, D9G, T10I, N13T, T25I

marmoset 1-27 CD3ε-EpCAM = target: T9, marmoset 1-27 CD3ε-EpCAM (Callithrix jacchus CD3 epsilon 1-27, …); test: as above
T9 construct: On transiently transfected 293-HEK cells; also called 1-27 CD3-EpCAM comprising the marmoset 27 mer
T9 chain: T6 chain with I7M

swine 1-27 CD3ε-EpCAM = target: T10, swine 1-27 CD3ε-EpCAM (Sus scrofa CD3 epsilon 1-27, cynomolgus …); test: FACS on transfected 293-HEK cells
T10 construct: Negative control construct on 293-HEK cells; also called 1-27 CD3-EpCAM comprising the swine 27 mer
T10 chain: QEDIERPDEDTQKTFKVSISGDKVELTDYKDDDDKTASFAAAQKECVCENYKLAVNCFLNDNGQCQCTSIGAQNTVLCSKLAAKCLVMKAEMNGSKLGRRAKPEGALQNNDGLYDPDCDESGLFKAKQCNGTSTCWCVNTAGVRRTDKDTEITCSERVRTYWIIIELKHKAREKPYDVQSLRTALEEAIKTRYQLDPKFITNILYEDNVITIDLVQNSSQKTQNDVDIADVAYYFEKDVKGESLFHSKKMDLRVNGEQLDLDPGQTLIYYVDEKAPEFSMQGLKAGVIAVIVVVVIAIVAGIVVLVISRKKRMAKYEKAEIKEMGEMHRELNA

[7] = target: T5, 1-27 CD3-Fc (N-terminal amino acids …); test: SPR (Biacore 2000), 1-27 CD3-Fc coupled to CM5 chip, analyte 5 µg/ml
[8] = target: T11, macaque CD3 on the macaque T cell line 4119LnPx (macaque, UniProt Q95LI5 22-198); test: FACS, 4119LnPx
T11 construct: whole, on cells; Native CD3 complex on 4119LnPx cells; also called cynomolgus CD3
T11 sequence (Q95LI5 22-198): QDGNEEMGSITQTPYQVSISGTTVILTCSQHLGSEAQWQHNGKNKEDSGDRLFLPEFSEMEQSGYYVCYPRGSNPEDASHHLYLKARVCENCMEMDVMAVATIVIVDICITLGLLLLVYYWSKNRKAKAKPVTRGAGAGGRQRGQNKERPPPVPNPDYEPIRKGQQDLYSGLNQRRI

T1 sequence (P07766 other isoform, or with tags, fused parts or gaps limits assumed, stated change not applied): as the sequence (P07766 other isoform, or with tags, fused parts or gaps, stated change not applied) above, with A1Q, G3A counted along it

binding result [1]: no binding | binding result [2]: no binding | binding result [3]: no binding | binding result [4]: no binding
B2: E2M HLP chimeric IgG antibody (murine IgG1 and human lambda constant regions) (antibody, V domains shown)
VH: EVQLLESGGGLVQPGGSLKLSCAASGFTFNGYAMNWVRQAPGKGLEWVARIRSKYNNYATYYADSVKERFTISRDDSKNTAYLQMNNLKTEDTAVYYCVRHRNFGNSYLSWFAYWGQGTLVTVSS
VL: ELVVTQEPSLTVSPGGTVTLTCRSSTGAVTSGYYPNWVQQKPGQAPRGLIGATDMRPSGTPARFSGSLLGGKAALTLSGVQPEDEAEYYCALWYSNRWVFGGGTKLTVLG
notes: also called IgG antibody E2M HLP

binding result [6]: binds | binding result (tamarin 1-27 CD3ε-EpCAM): binds | binding result (human 1-27 CD3ε-EpCAM): binds | binding result (marmoset 1-27 CD3ε-EpCAM): binds | binding result [5]: binds | binding result (swine 1-27 CD3ε-EpCAM): no binding
B4: E2M HLP single-chain antibody (scFv)
scFv: EVQLLESGGGLVQPGGSLKLSCAASGFTFNGYAMNWVRQAPGKGLEWVARIRSKYNNYATYYADSVKERFTISRDDSKNTAYLQMNNLKTEDTAVYYCVRHRNFGNSYLSWFAYWGQGTLVTVSSGGGGSGGGGSGGGGSELVVTQEPSLTVSPGGTVTLTCRSSTGAVTSGYYPNWVQQKPGQAPRGLIGATDMRPSGTPARFSGSLLGGKAALTLSGVQPEDEAEYYCALWYSNRWVFGGGTKLTVLTGDYKDDDDKHHHHHH
notes: Crude periplasmic preparation; also called VH-VL-P of E2M

binding result [8]: binds
B7: MCSP-G4 HLP × E2M HLP (bispecific antibody)
chain: QVQLVQSGAEVKRPGASMKVSCKASGYTFTNYYIHWVRQAPGQGLEWMGWINPNSGATNYAQKFQGRVTMTRDTSTSTVYMELSSLRSEDTAVYYCAKSWVSWFASWGQGTLVTVSSGGGGSGGGGSGGGGSELVMTQSPDSLAVSLGERATINCKSSQSVLNSSNNRNYLAWYQQKPGQPPKLLIYWASTRESGVPDRFSGSGSGTDFTLTISGLQAEDVAVYYCQQHYSTPFTFGPGTKVDIKSGGGGSEVQLLESGGGLVQPGGSLKLSCAASGFTFNGYAMNWVRQAPGKGLEWVARIRSKYNNYATYYADSVKERFTISRDDSKNTAYLQMNNLKTEDTAVYYCVRHRNFGNSYLSWFAYWGQGTLVTVSSGGGGSGGGGSGGGGSELVVTQEPSLTVSPGGTVTLTCRSSTGAVTSGYYPNWVQQKPGQAPRGLIGATDMRPSGTPARFSGSLLGGKAALTLSGVQPEDEAEYYCALWYSNRWVFGGGTKLTVLHHHHHH

The remaining lines, values behind:

B1: A2J HLP chimeric IgG antibody (murine IgG1 and human lambda constant regions) (antibody, V domains shown)
VH: B2 VH with G31V, E68K, R102G, F112W
VL: B2 VL
notes: also called IgG antibody A2J HLP
binding result [1]: no binding | binding result [2]: no binding | binding result [3]: no binding | binding result [4]: no binding

B3: A2J HLP single-chain antibody (scFv)
scFv: B4 scFv with G31V, E68K, R102G, F112W
notes: Crude periplasmic preparation; also called VH-VL-P of A2J
binding result [5]: binds

B5: EGFR-21-63 LH × A2J HLP (bispecific antibody)
chain: DIVLTQSPASLPVSLGQRATISCRASQSVSSSTYSYIHWYQQKPGQPPKLLITYASNLESGVPARFSGSGSGTDFTLDIHPVEEDDSSTYYCQHSWEIPFTFGSGTKLEIKGGGGSGGGGSGGGGSQVQLQQSGPDLVKPGASVKMSCKASGHTFTDCVIIWVKQRAGQGLEWIGQIYPGTGRSYYNEIFKGKATLTADKSSNTVHIQLSSLTSEDSAVYFCALSTLIHGTWFSYWGQGTLVTVSSGGGGSEVQLLESGGGLVQPGGSLKLSCAASGFTFNVYAMNWVRQAPGKGLEWVARIRSKYNNYATYYADSVKKRFTISRDDSKNTAYLQMNNLKTEDTAVYYCVRHGNFGNSYLSWWAYWGQGTLVTVSSGGGGSGGGGSGGGGSELVVTQEPSLTVSPGGTVTLTCRSSTGAVTSGYYPNWVQQKPGQAPRGLIGATDMRPSGTPARFSGSLLGGKAALTLSGVQPEDEAEYYCALWYSNRWVFGGGTKLTVLHHHHHH
notes: Bispecific single chain antibody; also called EGFR LH × A2J HLP
Kd [7]: 249 nM

B6: EGFR-21-63 LH × E2M HLP (bispecific antibody)
chain: B5 chain with V282G, K319E, G353R, W363F
notes: Bispecific single chain antibody; also called EGFR LH × E2M HLP
Kd [7]: 2460 nM
